Data published in patent US8080531B2, “Methods for modulating checkpoint activation through TopBP1” (California Institute of Technology, priority 2006, dated 2011).

B1: wild-type 978-1286 fragment of human TopBP1: EGFP containing the SV40 nuclear localization sequence and residues 978-1286 of human TopBP1, expressed from transfected plasmid (protein)
chain: KKKRKVAQECKHLPESLYPHTYNPKMSLDISAVQDGRLCNSRLLSAVSSTKDDEPDPLILEENDVDNMATNNKESAPSNGSGKNDSKGVLTQTLEMRENFQKQLQEIMSATSIVKPQGQRTSLSRSGCNSASSTPDSTRSARSGRSRVLEALRQSRQTVPDVNTEPSQNEQIIWDDPTAREERARLASNLQWPSCPTQYSELQVDIQNLEDSPFQKPLHDSEIAKQAVCDPGNIRVTEAPKHPISEELETPIKDSHLIPTPQAPSIAFPLANPPVAPHPREKIITIEETHEELKKQYIFQLSSLNPQERIDYCHL
modifications: left off: large carriers
B2: GST-XtopBP1 (1197-1513): GST fusion of XtopBP1 residues 1197-1513, containing two adjoining BRCT repeats (protein)
chain: EFEPKSAMRTPVIENNLQSPTKPDHLTPTPQAPSIAFPLANPPVAPQPREKPVQPFSKEETLKERRFQLSSLDPQERIDYSQLIEELGGVVIEKQCFDPSCTHIVVGHPLRNEKYLASMAAGKWVLHRSYLEACRAAKRFIQEEDYEWGSISILSAVTNINPQQRMLAEAAMRWRKKLQGIKQNMGIAEGAFSGWKVILNVDQTKEPGFKRLLQSGGAKVFAGHSSPLFKEASHLFADFSKLKPDEPRVNVAEAAAQGVNCLKPEYIADYLMKELPPPMNNYCLPDAIPYVRVTGTGLSRKRKTSGDVSDVKRSRHY
modifications: left off: a dimerising Fc or GST
notes: GST fusion of XtopBP1 residues 1197-1513, containing two adjoining BRCT repeats
B3: residues 1050-1192: His6-Human TopBP1 fragment containing residues 1050-1192 (protein, UniProt Q92547 1050-1192, looked up, fragment)
chain: NGSGKNDSKGVLTQTLEMRENFQKQLQEIMSATSIVKPQGQRTSLSRSGCNSASSTPDSTRSARSGRSRVLEALRQSRQTVPDVNTEPSQNEQIIWDDPTAREERARLASNLQWPSCPTQYSELQVDIQNLEDSPFQKPLHDS
modifications: His6 tag
B4: XtopBP1Δ993-1196: full-length version of XtopBP1 in which most of the ATR-activating domain had been deleted (protein)
chain: MASSENEPFCVKFIKSPENSEYFFKAYEAIKQIQSDESLQLTEEREALLLKEKDKSLYICDPFSGAAFSHLKKLGCRIVGPQVVIFCMENQRRVPRAEYPVYNMAMADVTISCTSLDKETREDVHHYVQIMGGCVYRDLNVSVTHLIAGEVGSKKYLVAASLEKPILLPSWVKELWEKSNQRIIRYSDVNMTEYLCPIFRGCTICVTGLSSLDRKEVQRLTALHGGEYTGQLKMNESTHLIVQEAKGQKYECARKWNVHCISVQWFFDSIEKGFCQDETMYKIEPASTIKSVPDTSTPTGGNSKPNSRALYDVSQISNISTSCVNESAFNSAMASRLDPPADTLENLDISSLQAPDDLLDGCRIYLCGFGGRKLDKLRKLINNGGGVRFNQLTGDVTHIIVGETDEELKQFLNKTQHRPYVLTVKWLLDSFAKGHLQPEEIYFHSSYQQTEMPSPFEPAINLTANKMSSTRGPLNHTRNHQADEDLLSQYTENNSTLIEDEHPKTSNTNSISQMSMHEDMTTCTSQSGLADTSTIIEGGLFSRKQFMVLGFLEEDEACIIDIIKKSAGKVLSSQKRAIADYAVVPLLGCEVESTVGEVVTNAWLGMCIEQEKLLDPHSNALFTPVPFLEGSTPLRECVLSVSQFMGAERDSLVYLAGLLGAKVQEFFVRKANPKKGMFASTHLVLKDAEGSKYEAAKKWNLPAVTMNWLLQCARTGRKADEDSYLVDNVPEEDKDESFISQTYKPQAIRLSMHAPCHLENHPEALTKAAVTPLDMNRFKSKAFQSVISQHNKNPQTSGGESKVLQREPSLHLDTPSKFLSKDKLFKPSFDVKDALAALETPGGPNQKNRTQSTPLSEVIGRNLQLAIANSTRQTAAVTASPQLKAAEKKEFDNSKLLINVVICVSKKLIKKQGELNGIAASLGAEYRWCFDESVTHFIYHGRQNDMSREYKSVKERSGIYIVSEHWLFACSEQQKRVPEALYPHTYNPKMSLEFEPKSAMRTPVIENNLQSPTKPDHLTPTPQAPSIAFPLANPPVAPQPREKPVQPFSKEETLKERRFQLSSLDPQERIDYSQLIEELGGVVIEKQCFDPSCTHIVVGHPLRNEKYLASMAAGKWVLHRSYLEACRAAKRFIQEEDYEWGSISILSAVTNINPQQRMLAEAAMRWRKKLQGIKQNMGIAEGAFSGWKVILNVDQTKEPGFKRLLQSGGAKVFAGHSSPLFKEASHLFADFSKLKPDEPRVNVAEAAAQGVNCLKPEYIADYLMKELPPPMNNYCLPDAIPYVRVTGTGLSRKRKTSGDVSDVKRSRHY
modifications: left off: small tags and cut ends
B5: 1050-1286 fragment: His6-Human TopBP1 fragment, residues 1050-1286 (protein)
chain: NGSGKNDSKGVLTQTLEMRENFQKQLQEIMSATSIVKPQGQRTSLSRSGCNSASSTPDSTRSARSGRSRVLEALRQSRQTVPDVNTEPSQNEQIIWDDPTAREERARLASNLQWPSCPTQYSELQVDIQNLEDSPFQKPLHDSEIAKQAVCDPGNIRVTEAPKHPISEELETPIKDSHLIPTPQAPSIAFPLANPPVAPHPREKIITIEETHEELKKQYIFQLSSLNPQERIDYCHL
modifications: left off: small tags and cut ends
B6: 1008-1286 fragment: His6-Human TopBP1 fragment, residues 1008-1286 (protein)
chain: RLCNSRLLSAVSSTKDDEPDPLILEENDVDNMATNNKESAPSNGSGKNDSKGVLTQTLEMRENFQKQLQEIMSATSIVKPQGQRTSLSRSGCNSASSTPDSTRSARSGRSRVLEALRQSRQTVPDVNTEPSQNEQIIWDDPTAREERARLASNLQWPSCPTQYSELQVDIQNLEDSPFQKPLHDSEIAKQAVCDPGNIRVTEAPKHPISEELETPIKDSHLIPTPQAPSIAFPLANPPVAPHPREKIITIEETHEELKKQYIFQLSSLNPQERIDYCHL
modifications: left off: small tags and cut ends

Experiments:
Xatr-Xatrip [1] = experiment: Kinase assay of Xatr-Xatrip complexes isolated from Xenopus egg extracts; format: biochemical; details: for activation of Xatr kinase activity toward PHAS-I: isolated Xatr-Xatrip complexes, 32P-ATP, result in words; for ATR activation compared with the 972-1279 fragment: Xatr-XatripΔ222, PHAS-I, His6-human TopBP1 fragments
Xatr-Xatrip, sequence (Q9DE14 whole entry, the tested form may be a part): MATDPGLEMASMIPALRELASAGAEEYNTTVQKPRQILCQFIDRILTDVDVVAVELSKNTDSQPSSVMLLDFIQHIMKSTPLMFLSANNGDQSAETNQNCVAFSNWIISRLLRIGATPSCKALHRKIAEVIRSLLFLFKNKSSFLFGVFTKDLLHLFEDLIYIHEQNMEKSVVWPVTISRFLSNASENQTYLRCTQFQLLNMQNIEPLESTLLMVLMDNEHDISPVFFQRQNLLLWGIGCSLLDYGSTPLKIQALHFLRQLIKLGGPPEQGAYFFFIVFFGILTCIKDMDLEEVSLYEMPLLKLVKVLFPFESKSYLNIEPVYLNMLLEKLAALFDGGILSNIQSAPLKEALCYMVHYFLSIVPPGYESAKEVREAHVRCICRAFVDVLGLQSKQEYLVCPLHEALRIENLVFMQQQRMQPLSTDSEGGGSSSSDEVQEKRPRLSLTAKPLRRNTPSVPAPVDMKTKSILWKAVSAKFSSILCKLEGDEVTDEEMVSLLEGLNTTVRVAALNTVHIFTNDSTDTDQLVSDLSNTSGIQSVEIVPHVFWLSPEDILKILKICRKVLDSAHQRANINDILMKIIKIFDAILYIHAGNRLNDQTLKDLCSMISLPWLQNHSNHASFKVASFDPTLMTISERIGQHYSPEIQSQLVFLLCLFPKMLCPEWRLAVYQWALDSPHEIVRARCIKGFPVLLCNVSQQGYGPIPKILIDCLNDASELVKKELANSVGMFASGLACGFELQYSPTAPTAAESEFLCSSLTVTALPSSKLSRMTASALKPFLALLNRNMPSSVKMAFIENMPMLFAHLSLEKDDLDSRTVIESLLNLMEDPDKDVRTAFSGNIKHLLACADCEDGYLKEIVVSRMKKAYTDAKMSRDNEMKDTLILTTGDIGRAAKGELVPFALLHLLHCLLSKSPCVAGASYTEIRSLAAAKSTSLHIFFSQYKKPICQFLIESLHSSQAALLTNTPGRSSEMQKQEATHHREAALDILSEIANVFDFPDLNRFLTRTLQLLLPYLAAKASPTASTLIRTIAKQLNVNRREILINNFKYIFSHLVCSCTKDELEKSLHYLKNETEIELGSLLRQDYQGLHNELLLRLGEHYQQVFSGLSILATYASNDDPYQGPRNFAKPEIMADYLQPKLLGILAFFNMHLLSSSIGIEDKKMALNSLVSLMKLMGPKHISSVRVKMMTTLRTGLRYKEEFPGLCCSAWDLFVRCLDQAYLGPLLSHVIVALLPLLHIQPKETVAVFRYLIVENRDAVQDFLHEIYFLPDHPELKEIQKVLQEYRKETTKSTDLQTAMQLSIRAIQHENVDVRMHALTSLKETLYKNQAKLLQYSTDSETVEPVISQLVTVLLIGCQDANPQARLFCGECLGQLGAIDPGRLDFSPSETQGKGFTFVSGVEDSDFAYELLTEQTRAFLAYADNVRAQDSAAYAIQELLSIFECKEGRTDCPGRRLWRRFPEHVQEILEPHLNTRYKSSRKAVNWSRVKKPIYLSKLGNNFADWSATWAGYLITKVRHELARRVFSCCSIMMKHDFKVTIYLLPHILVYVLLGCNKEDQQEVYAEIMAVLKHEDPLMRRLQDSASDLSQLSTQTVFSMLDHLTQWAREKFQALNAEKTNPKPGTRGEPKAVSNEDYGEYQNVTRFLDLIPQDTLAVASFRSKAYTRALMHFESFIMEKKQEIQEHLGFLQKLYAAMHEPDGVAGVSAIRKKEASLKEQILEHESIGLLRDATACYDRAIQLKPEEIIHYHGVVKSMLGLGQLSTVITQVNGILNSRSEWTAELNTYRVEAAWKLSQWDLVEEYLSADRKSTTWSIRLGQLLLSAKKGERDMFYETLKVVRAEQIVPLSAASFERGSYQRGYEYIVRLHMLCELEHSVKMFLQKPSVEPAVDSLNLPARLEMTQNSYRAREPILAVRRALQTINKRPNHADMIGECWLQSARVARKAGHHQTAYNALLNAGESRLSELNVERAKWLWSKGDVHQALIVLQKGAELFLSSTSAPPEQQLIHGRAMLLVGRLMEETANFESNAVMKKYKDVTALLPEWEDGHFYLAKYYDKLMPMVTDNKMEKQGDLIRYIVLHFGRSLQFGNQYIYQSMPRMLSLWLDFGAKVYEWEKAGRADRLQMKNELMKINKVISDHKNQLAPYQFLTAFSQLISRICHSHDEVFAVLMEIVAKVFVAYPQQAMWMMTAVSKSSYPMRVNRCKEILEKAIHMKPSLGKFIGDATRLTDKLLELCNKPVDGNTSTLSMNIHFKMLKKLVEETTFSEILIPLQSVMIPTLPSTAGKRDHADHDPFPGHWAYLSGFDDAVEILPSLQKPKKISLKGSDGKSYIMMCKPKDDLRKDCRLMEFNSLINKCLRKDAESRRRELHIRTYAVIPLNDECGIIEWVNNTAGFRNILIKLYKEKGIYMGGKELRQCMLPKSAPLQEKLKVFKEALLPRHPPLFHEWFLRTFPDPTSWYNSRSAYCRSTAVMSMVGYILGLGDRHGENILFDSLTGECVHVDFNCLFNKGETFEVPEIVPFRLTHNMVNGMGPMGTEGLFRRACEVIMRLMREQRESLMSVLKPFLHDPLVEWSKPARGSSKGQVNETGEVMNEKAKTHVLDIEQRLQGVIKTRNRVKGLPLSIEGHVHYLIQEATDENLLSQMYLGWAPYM
Description: Specifically, Applicants first isolated Xatr from egg extracts by pull-downs with FLAG-tagged Xenopus ATRIP (Xatrip). For these experiments, Applicants used both full-length Xatrip and an N-terminal truncation mutant (ΔN222) that supports normal Xatr-dependent activation of Xchk1 in egg extracts (Kumagai et al., 2004; Kim et al., 2005).
Applicants eluted the beads with FLAG peptide and mixed the eluates with a His6-tagged version of XtopBP1 that had been purified from baculovirus-infected insect cells (FIG. 1B). Finally, Applicants added ^32P-ATP and PHAS-I, a commonly used model substrate for ATR (Abraham, 2001).
Xatrip-FLAG and XatripΔN222-FLAG (20 ng/μl each) were incubated in interphase extracts containing anti-FLAG M2 antibody beads (Sigma) for 60 min at room temperature. The beads were isolated and washed twice with buffer A (10 mM HEPES-KOH (pH 7.5), 150 mM NaCl, 0.1% CHAPS, and 2.5 mM EGTA) and twice with HEPES-buffered saline (HBS; 10 mM HEPES-KOH (pH 7.5) and 150 mM NaCl). Xatr-Xatrip complexes were eluted in one-tenth the volume of the egg extract in HBS containing 0.1 mg/ml 3×-FLAG peptide (Sigma) for 60 min at 4° C. Eluates (2 μl) were used for kinase assays as described below.
Samples were incubated in 20 μl kinase buffer (50 mM Tris-HCl (pH 7.5), 10 mM MgCl2, 1 mM dithiothreitol, 100 μM nonradioactive ATP, and 100 μCi/ml [γ-^32P]ATP) containing 12.5 μg/ml PHAS-I or 50 μg/ml GST-Xmcm2 (62-122) for 30 min at room temperature. GST-XtopBP1 (972-1279) was added at a final concentration of 100 μg/ml unless indicated otherwise. In some cases, GST-Xmcm2 (62-122), GST-Xchk1 (306-352), or full-length Xchk1-Myc-His6 were used as substrates with only […] nonradioactive ATP. Reactions were terminated by boiling in gel sample buffer.

human Mcm2 on S108 = experiment: Phosphorylation of Mcm2 on S108 in transfected human 293T cells; format: cell-based
Description: To pursue this issue further, Applicants asked whether the ATR-activating domain of TopBP1 could induce ATR-dependent phosphorylation in human cells. For this purpose, Applicants constructed a version of the enhanced green fluorescent protein (EGFP) containing the SV40 nuclear localization sequence and residues 978-1286 of human TopBP1 (equivalent to residues 972-1279 of XtopBP1). Applicants also produced the W1145R mutant of this plasmid (analogous to the W1138R mutant of XtopBP1). Applicants transfected plasmids encoding these proteins into human 293T cells and performed immunoblotting with anti-phosphopeptide antibodies that detect phosphorylation of human Mcm2 on S108 (which corresponds to S92 of Xmcm2) (Cortez et al., 2004; Yoo et al., 2004).
pEGFP-NLS-TopBP1 (978-1286), which encodes EGFP followed by a nuclear localization sequence (KKKRKV, SEQ ID NO: 11) and amino acids 978-1286 of human TopBP1, was prepared from pEGFP (Clontech) by standard polymerase chain reaction-based methods. Plasmids were transfected into 293T cells with Lipofectamine 2000 (Invitrogen).

Xchk1 = experiment: Ectopic phosphorylation of 35S-Xchk1 in Xenopus egg extracts without checkpoint-inducing DNA; format: biochemical; details: 35S-Xchk1, tautomycin, no checkpoint-inducing DNA template
Method: Because the GST-XtopBP1 (972-1279) fragment could activate Xatr in vitro without the inclusion of DNA, Applicants reasoned that ectopic addition of this fragment to Xenopus egg extracts might also be able to trigger the Xatr-dependent phosphorylation of Xchk1 even in the absence of a checkpoint-inducing DNA template.
Extracts from Xenopus eggs were prepared as described (Kumagai and Dunphy, 2000). A DNA replication checkpoint response was induced by addition of 50 μg/ml aphidicolin into extracts containing demembranated sperm nuclei (3000 per μl) (Kumagai and Dunphy, 2000). To monitor DNA replication, extracts containing 1000 sperm nuclei/μl were incubated with [α-^32P]dATP (Yoo et al., 2004).

Xatr-Xatrip [2] = experiment: Glutathione bead pull-down of Xatr and Xatrip from egg extracts; format: binding, Xenopus; details: egg extracts, immunoblotting
Method: Specifically, Applicants incubated glutathione beads containing GST-XtopBP1 (972-1279) in egg extracts, reisolated the beads, and performed immunoblotting for both Xatr and Xatrip. […] In addition, in other experiments, there was no binding of Xatr or Xatrip to beads containing GST fusions of the 1-348, 333-646, or 623-984 segments from XtopBP1 (data not shown).
Applicants also tested to see if the association of XtopBP1 with Xatr depends upon Xatrip. For this experiment, Applicants removed endogenous Xatrip from egg extracts by immunodepletion with anti-Xatrip antibodies. As described previously, this procedure leaves behind approximately 30% of the endogenous Xatr, the fraction that is not in a complex with Xatrip (Kumagai et al., 2004). Next, Applicants added GST-XtopBP1 (972-1279) to the Xatrip-depleted extracts and to mock-depleted extracts that had been prepared in parallel.

Row | Molecule | activation of Xatr kinase activity toward PHAS-I (Xatr-Xatrip [1]) | ATR activation compared with the 972-1279 fragment (Xatr-Xatrip [1]) | other results
1 | human TopBP1 (residues 978-1192): GST fusion fragment of human TopBP1 (residues 978-1192) from between BRCT domains VI and VII | activated Xatr-Xatrip very effectively | – | –
2 | residues 978-1192: His6-Human TopBP1 fragment containing residues 978-1192 | – | almost as effective as the 972-1279 fragment | –
3 | B1 | – | – | phosphorylation of Mcm2 on S108 (human Mcm2 on S108; immunoblotting): significantly elevated phosphorylation; phosphorylation of S108 (human Mcm2 on S108; indirect immunofluorescence): increase in the phosphorylation of S108
4 | B2 | incapable of activating Xatr | – | phosphorylation of Xchk1 in egg extracts (Xchk1): did not induce any phosphorylation; binding of Xatr and Xatrip to glutathione beads (Xatr-Xatrip [2]): no binding
5 | B3 | – | almost as effective as the 972-1279 fragment | –
6 | B4 | no Xatr-activating capacity | – | –
7 | B5 | – | significant reduction | –
8 | B6 | – | slight, but not very significant reduction | –
